B1: CLCN6 (parent)
chain: TGLVGLFVDFFVRLFTQLKFGVVQ
B2: FAM46C (parent)
chain: VRSRLEEAGIKVHDVRLNGSAAGH

Variants of: B1
Assay: protein stability index of a GFP-peptide fusion (GPS, HEK-293T) (PSI 1-6); higher = more stable
Conditions: c terminus: a fixed tail appended
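Also: lentivirally expressed fusions sorted by FACS into six bins by GFP to DsRed ratio, PSI derived from sequencing read proportions per bin multiplied by bin number.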

Protein stability index: each site, then its substitutions
V23: A 2.27
V22: K 2.26, C 1.87, T 2.18, Q 2.48, A 1.77, Y 2.36, M 2.58, P 2.07, I 2.84, W 2.72, N 1.25, S 2.33, G 1.72, L 2.5, F 2.6, H 1.92, E 3.23, R 2.34

Variants of: B2
Assay: as above
Conditions: c terminus: a fixed tail appended

Protein stability index: each site, then its substitutions
S20: G 1.94, T 1.56, K 2.28, F 1.35, L 2, H 2.16
G9: Y 2.51, I 1.44, L 2.26, R 3.88, S 3.9, H 4.57
G19: I 3.83, T 1.74, R 2.22, L 2.16, V 1.79, F 2.44, M 1.83, D 2.26
S3: P 4.33, M 1.53, N 1.77, V 1.69, W 2.05, Y 1.53, T 1.68
A22: P 2.37, W 2.68, M 2.66, C 1.65, G 2.86
V12: G 4.04, I 2.67, F 3.04, H 3.6, R 4.44, N 4.04, Q 4.06
K11: C 2.73, A 3.94, N 3.82, L 3.83
H13: T 1.86, Y 1.25, P 4.08, W 2.02, N 2.74, R 2.32, M 1.53
R2: V 2.13, I 2.15, E 3.85, L 2.34
R4: F 1.89, H 3.26, Q 3.52, I 2.53, P 4.24
A21: K 4.25, P 1.8, D 3.13, E 2.53, C 1.73, T 2.51
L17: C 2.61, V 2.67, P 2.6, F 2.47, R 3.52, E 4.2, K 4.53, Q 4.23
D14: H 3.04, W 1.62, P 4.54, I 1.29, Q 2.56
L5: A 4.34, G 4.21, N 4.03, C 3.68, K 3.97, V 3.7
E6: M 1.71, F 2.46, Y 2.1, Q 3.22, T 2.44, S 2.7, I 2.54, D 3.09, G 3.06
I10: Y 1.75, M 3.78, C 2.89, R 3.41
A8: K 3.38, D 4.49, I 1.66, F 1.85
N18: D 2.81, Y 1.62, C 2.64, E 1.53, L 1.16, V 2.7, P 3.12
E7: C 1.47, Y 2.8, S 2.5, F 2.49
V1: E 3.44, D 4.33, F 2.56, Y 3.57, N 3.5, L 1.33, Q 4.59, P 4.38
H24: S 3.07, M 2.15, D 2.7, A 3.06, I 2.01, N 3.78
V15: C 2.42, N 3.62, K 3.44, R 3.75, A 4.24, L 2.76, E 3.27
R16: D 4.37, S 2.68, V 2.63
G23: R 2.38, Y 2.18, T 3.09, N 2.55, E 2.3, K 2.25, C 1.64, H 2.85, S 2.6, V 1.82, L 1.64, D 2.44

Source: the supplement of paper PMC10567573
